Data: patent US20030114377A1

Legend:
[1] = target: soluble CD14 PQPD deletion mutant (residues 22-25 of SEQ ID NO: 1 deleted) (human) (UniProt P08571); assay: ELISA, mutant CD14 coated, biotinylated mAb; grade = OD as % of wild-type CD14 (+ 11-50%)
[2] = target: soluble CD14 DDED deletion mutant (residues 9-12 of SEQ ID NO: 1 deleted) (human) (UniProt P08571); assay: as above
[3] = target: soluble CD14 DPRQY deletion mutant (residues 59-63 of SEQ ID NO: 1 deleted) (human) (UniProt P08571); assay: ELISA, mutant CD14 coated, biotinylated mAb; grade = OD as % of wild-type CD14 (++++ >90%)
[4] = target: soluble CD14 DPRQY deletion mutant (residues 59-63 of SEQ ID NO: 1 deleted) (human) (UniProt P08571); assay: ELISA, mutant CD14 coated, biotinylated mAb; grade = OD as % of wild-type CD14 (++ 51-75%)
[5] = target: soluble CD14 AVEVE deletion mutant (residues 35-39 of SEQ ID NO: 1 deleted) (human) (UniProt P08571); assay: as above
[6] = target: soluble CD14 DDED/PQPD double deletion mutant (residues 9-12 and 22-25 of SEQ ID NO: 1 deleted) (human) (UniProt P08571); assay: ELISA, mutant CD14 coated, biotinylated mAb; grade = OD as % of wild-type CD14 (++++ >90%)
[7] = target: soluble CD14 DDED deletion mutant (residues 9-12 of SEQ ID NO: 1 deleted) (human) (UniProt P08571); assay: as above
[8] = target: soluble CD14 PQPD deletion mutant (residues 22-25 of SEQ ID NO: 1 deleted) (human) (UniProt P08571); assay: ELISA, mutant CD14 coated, biotinylated mAb; grade = OD as % of wild-type CD14 (+++ 76-90%)
[9] = target: soluble CD14 DDED/PQPD double deletion mutant (residues 9-12 and 22-25 of SEQ ID NO: 1 deleted) (human) (UniProt P08571); assay: as above
[10] = target: soluble CD14 DDED deletion mutant (residues 9-12 of SEQ ID NO: 1 deleted) (human) (UniProt P08571); assay: as above

Row | Substance | OD405 as percent of wild-type CD14 OD [3] | OD405 as percent of wild-type CD14 OD [5] | OD405 as percent of wild-type CD14 OD [8] | also measured
1 | anti-CD14 monoclonal antibody UCHM-1 | > 90% | – | – | OD405 as percent of wild-type CD14 OD [1]: 11 to 50%; OD405 as percent of wild-type CD14 OD [2]: 11 to 50%
2 | anti-CD14 monoclonal antibody MO-2 | – | – | – | OD405 as percent of wild-type CD14 OD [4]: 51 to 75%
3 | anti-CD14 monoclonal antibody 63D3 | > 90% | 51 to 75% | 76 to 90% | OD405 as percent of wild-type CD14 OD [6]: > 90%; OD405 as percent of wild-type CD14 OD [7]: > 90%

More lines, main results first:

Row | OD405 as percent of wild-type CD14 OD [3] | OD405 as percent of wild-type CD14 OD [5] | OD405 as percent of wild-type CD14 OD [8] | Substance | also measured
4 | > 90% | – | – | anti-CD14 monoclonal antibody MY4 | –
5 | – | 51 to 75% | 76 to 90% | anti-CD14 monoclonal antibody MEM-18 | OD405 as percent of wild-type CD14 OD [9]: 76 to 90%; OD405 as percent of wild-type CD14 OD [10]: 76 to 90%
